# Square brackets hold non-standard residues; d marks the D form. Chem. 28 = not defined here; Aib = CC(C)(N)C(=O)O
# T1: human GIP receptor (human, UniProt P48546 22-466)
# T1 sequence (looked up): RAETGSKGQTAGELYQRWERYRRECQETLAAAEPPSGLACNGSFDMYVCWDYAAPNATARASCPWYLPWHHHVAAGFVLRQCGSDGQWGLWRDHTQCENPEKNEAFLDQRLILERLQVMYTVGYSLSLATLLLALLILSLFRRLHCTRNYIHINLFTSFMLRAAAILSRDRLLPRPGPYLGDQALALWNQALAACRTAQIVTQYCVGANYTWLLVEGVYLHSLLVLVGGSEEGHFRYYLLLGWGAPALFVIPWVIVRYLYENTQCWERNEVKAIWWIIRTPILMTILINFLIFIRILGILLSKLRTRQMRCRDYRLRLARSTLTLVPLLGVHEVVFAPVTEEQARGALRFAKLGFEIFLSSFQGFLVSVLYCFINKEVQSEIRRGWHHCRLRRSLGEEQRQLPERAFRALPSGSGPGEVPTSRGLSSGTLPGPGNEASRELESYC
# T2: human amylin-3(a) receptor (human, UniProt P30988 25-474; O60896 24-148)
# T2 sequence (looked up) 1: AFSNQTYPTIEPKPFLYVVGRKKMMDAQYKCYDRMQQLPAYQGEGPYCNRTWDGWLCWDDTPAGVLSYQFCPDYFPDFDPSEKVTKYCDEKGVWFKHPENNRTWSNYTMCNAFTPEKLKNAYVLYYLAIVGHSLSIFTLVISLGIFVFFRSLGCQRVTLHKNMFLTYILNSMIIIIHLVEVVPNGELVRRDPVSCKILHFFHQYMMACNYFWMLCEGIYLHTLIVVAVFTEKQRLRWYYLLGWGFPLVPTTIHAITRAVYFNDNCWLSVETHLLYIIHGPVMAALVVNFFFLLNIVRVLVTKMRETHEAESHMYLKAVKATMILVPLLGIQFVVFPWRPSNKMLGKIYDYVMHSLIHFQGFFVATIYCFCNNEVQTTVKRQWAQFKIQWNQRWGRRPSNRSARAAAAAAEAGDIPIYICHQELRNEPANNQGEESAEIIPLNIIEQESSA
# T2 sequence (looked up) 2: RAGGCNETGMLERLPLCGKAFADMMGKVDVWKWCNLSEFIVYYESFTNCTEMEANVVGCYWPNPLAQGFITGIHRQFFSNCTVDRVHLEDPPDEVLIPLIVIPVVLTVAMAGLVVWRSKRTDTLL
# B1: Compound 29 (peptide)
# peptide: Y[Aib]EGTFTSDYSILLEEQAAREFIEWLLAGGPSK(Chem. 28)GEASELSTAALGRLSAELHYLATLPRTETGSGSP-NH2
# modifications: reading uncertain
# B2: Compound 24 (peptide)
# peptide: Y[Aib]EGTFTSDYSILLEEQAAREFIEWLLAGGPSK(Chem. 28)GALAQTLFVNQASELSTAALGRLSAELHELATLPRTETGSGSP-NH2
# modifications: reading uncertain
# B3: Compound 27 (peptide)
# peptide: Y[Aib]EGTFTSDYSILLEEQAAREFIEWLLAGGPSK(Chem. 28)GEASELSTAQLGRLSAELHRLATLPRTETGSGSP-NH2
# modifications: reading uncertain
# B4: Compound 25 (peptide)
# peptide: H[Aib]HGTFTSDYSILLEEQAAREFIEWLLAGGPSK(Chem. 28)GEASELSTAALGRLSAELHRLATLPRTETGSGSP-NH2
# modifications: reading uncertain
# B5: Compound 28 (peptide)
# peptide: Y[Aib]EGTFTSDYSILLEEQAAREFIEWLLAGGPSK(Chem. 28)GEASELSTAALARLSAELHRLATLPRTETGSGSP-NH2
# modifications: reading uncertain
# B6: Compound 37 (peptide)
# peptide: H[Aib]HGTFTSDYSILLEEQAAREFIEWLLAGGPSK(Chem. 28)GAPPPSGGGEASHLSTAQTARLSAELHRLADLPRTETGSGSP-NH2
# modifications: reading uncertain
# B7: Compound 36 (peptide)
# peptide: H[Aib]HGTFTSDYSILLEEQAAREFIEWLLAGGPSK(Chem. 28)GEASHLSTAQTARLSAELHELATLPRTETGSGSP-NH2
# modifications: reading uncertain
# B8: Compound 45 (peptide)
# peptide: H[Aib]HGTFTSDYSILLEEQAAREFIEWLLAGGPSK(Chem. 28)GALAQTLGTNEASHLSTAQTQRLSAELHELATLPRTETGSGSP-NH2
# modifications: reading uncertain
# B9: Compound 47 (peptide)
# peptide: H[Aib]HGTFTSDYSILLEEQAAREFIEWLLAGGPSK(Chem. 28)GAGQAPGQAPGASHLSTAQTQRLSAELHELATLPRTETGSGSP-NH2
# modifications: reading uncertain
# B10: Compound 31 (peptide)
# peptide: Y[Aib]EGTFTSDYSILLEEQAAREFIEWLLAGGPSSK(Chem. 28)APPPSGGGEASELSTAALGRLSAELHRLATLPRTETGSGSP-NH2
# modifications: reading uncertain
# B11: Compound 32 (peptide)
# peptide: Y[Aib]EGTFTSDYSILLEEQAAREFIEWLLAGGPSK(Chem. 28)GAEASELSTAALGRLSAELHELATLPRTETGSGSP-NH2
# modifications: reading uncertain
# B12: Compound 30 (peptide)
# peptide: H[Aib]HGTFTSDYSILLEEQAAREFIEWLLAGGPSK(Chem. 28)GAPPPSGGGEASELSTAALGRLSAELHRLATLPRTETGSGSP-NH2
# modifications: reading uncertain
# B13: Compound 48 (peptide)
# peptide: Y[Aib]EGTFTSDYSILLEEQAAREFIEWLLAGGPSSGALAQTLAQTLASHLSTAQTQRLSAELHK(Chem. 28)LATLPRTETGSGSP-NH2
# modifications: reading uncertain
# B14: Compound 43 (peptide)
# peptide: H[Aib]HGTFTSDYSILLEEQAAREFIEWLLAGGPSK(Chem. 28)GEASQLSTAALGRLSAELHRLADLPRTETGSGSP-NH2
# modifications: reading uncertain
# B15: Compound 49 (peptide)
# peptide: Y[Aib]EGTFTSDYSILLEEQAAREFIEWLLAGGPSSGAPPPSGGGEASHLSTAQTQRLSAELHK(Chem. 28)LATLPRTETGSGSP-NH2
# modifications: reading uncertain
# B16: Compound 50 (peptide)
# peptide: Y[Aib]EGTFTSDYSILLEEQAAREFIEWLLAGGPSSGEASHLSTAQTQRLSAELHK(Chem. 28)LATLPRTETGSGSP-NH2
# modifications: reading uncertain
# B17: Compound 23 (peptide)
# peptide: Y[Aib]EGTFTSDYSILLEEQAAREFIEWLLAGGPSK(Chem. 28)GALAQTLGTNEASELSTAALGRLSAELHELATLPRTETGSGSP-NH2
# modifications: reading uncertain
# B18: Compound 38 (peptide)
# peptide: Y[Aib]EGTFTSDYSILLEEQAAREFIEWLLAGGPSK(Chem. 28)GGQAPGQAPGEASHLSTAQTQRLSAELHELATLPRTETGSGSP-NH2
# modifications: reading uncertain
# B19: Compound 39 (peptide)
# peptide: Y[Aib]EGTFTSDYSILLEEQAAREFIEWLLAGGPSK(Chem. 28)GGQEPGQEPGEASHLSTAQTQRLSAELHELATLPRTETGSGSP-NH2
# modifications: reading uncertain
# Molecular target: T3, human GLP-1 receptor (human, UniProt P43220 24-463)
# Assay: cell-based or functional assay
row,Binder,"hGLP-1R Potency, no HSA, EC50 [pM]"
1,B1,27.1 pM
2,B2,51.5 pM
3,B3,26.2 pM
4,B4,2.87 pM
5,B5,96 pM
6,B6,3.94 pM
7,B7,3.19 pM
8,B8,4.78 pM
9,B9,3.15 pM
10,B10,47.8 pM
11,B11,27.6 pM
12,B12,6.37 pM
13,B13,64.8 pM
14,B14,4.31 pM
15,B15,33.3 pM
16,B16,16.2 pM
17,B17,15.3 pM
18,B18,12 pM
19,B19,23.7 pM

# Molecular target: T1, human GIP receptor
# Assay: cell-based or functional assay
row,Binder,"hGIPR Potency, no HSA, EC50 [pM]"
1,B1,2.62 pM
2,B2,2.34 pM
3,B3,2.11 pM
4,B4,4.27 pM
5,B5,3.5 pM
6,B6,2.34 pM
7,B7,1.96 pM
8,B8,2.63 pM
9,B9,2.02 pM
10,B10,4.73 pM
11,B11,8.09 pM
12,B12,6.8 pM
13,B13,7.02 pM
14,B14,4.38 pM
15,B15,4.36 pM
16,B16,2.36 pM
17,B17,1.2 pM
18,B18,1.37 pM
19,B19,1.62 pM

# Molecular target: T2, human amylin-3(a) receptor
# Assay: cell-based or functional assay
row,Binder,"hAMYR3 Potency, no HSA, EC50 [pM]"
1,B1,3.09 pM
2,B2,4.24 pM
3,B3,3.82 pM
4,B4,3.22 pM
5,B5,2.28 pM
6,B6,2.98 pM
7,B7,3.84 pM
8,B8,4.69 pM
9,B9,2.57 pM
10,B10,2.69 pM
11,B11,10.1 pM
12,B12,2.28 pM
13,B13,3.2 pM
14,B14,3.13 pM
15,B15,1.85 pM
16,B16,3.2 pM
17,B17,5.17 pM
18,B18,3.63 pM
19,B19,5.75 pM

# Molecular target: T3, human GLP-1 receptor
# Assay: cell-based or functional assay
# Remark: another data set of the same source
row,Binder,"hGLP-1R Potency, 1% HSA, EC50 [pM]"
1,B6,188 pM
2,B7,208 pM
3,B8,112 pM
4,B9,67.5 pM
5,B13,105 pM
6,B14,41.5 pM
7,B15,110 pM
8,B16,66.3 pM
9,B18,2350 pM
10,B19,1930 pM

# Molecular target: T1, human GIP receptor
# Assay: cell-based or functional assay
# Remark: another data set of the same source
row,Binder,"hGIPR Potency, 1% HSA, EC50 [pM]"
1,B6,133 pM
2,B7,226 pM
3,B8,132 pM
4,B9,162 pM
5,B13,54 pM
6,B14,186 pM
7,B15,16.7 pM
8,B16,15.1 pM
9,B18,336 pM
10,B19,352 pM

# Molecular target: T2, human amylin-3(a) receptor
# Assay: cell-based or functional assay
# Remark: another data set of the same source
row,Binder,"hAMYR3 Potency, 1% HSA, EC50 [pM]"
1,B6,75.7 pM
2,B7,137 pM
3,B8,62.4 pM
4,B9,55.8 pM
5,B13,78.5 pM
6,B14,56.5 pM
7,B15,106 pM
8,B16,185 pM
9,B18,172 pM
10,B19,140 pM

# — US20260174875A1 (Novo Nordisk A/S, priority 2023, published 2026)
